Laboratory results from the supplement of paper PMC10126150.
± gives the standard deviation of the averaged measurements.

System: ATP
Assay: switch fluorescence ratio, 500 uM ATP over buffer (Cy3 cluster intensity, sum of 5 cycles each) (fold (ratio)); higher = stronger signal-on switching upon ATP binding; sequences stand for … in TCGTCGGCAGCGTCAGATGTGTATAAGAGACAGTTTTTTTTTTTTTTTTTTTTTTTTT…TC
Conditions: aptamer strand: ATP DNA aptamer (quencher-CACCTGGGGGAGTATTGCGGAGGAAGG + anchor), 100 nM annealed; ATP concentration: 500 uM
Procedure, shortened: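 Per cluster, summed Cy3 intensity from the target cycles was divided by that from the buffer cycles to give the fluorescence ratio, then averaged per switch-domain sequence. Clusters outside 100-1000 RFU were excluded. The Cy3-labelled switching-strand clusters, on a modified Illumina MiSeq flow-cell, were annealed to 100 nM quencher-labelled ATP aptamer and imaged in selection buffer, then after 15 min with 500 uM ATP at 22 °C, for five cycles with NaOH stripping and re-annealing between them.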
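Also: ATP exposure 15 min at 22 °C before imaging.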

Sequence	switch fluorescence ratio
GTTAGCTTGA	0.9966 ± 0.00037
GTTAGCTTGC	0.996 ± 0.029
GTTAGGAGGC	0.989 ± 0.062
GTTAGGAGTT	0.941 ± 0.039
GTTAGGCCTG	0.969 ± 0.013
GTTAGGGGGA	1 ± 0.011
GTTAGGGGTG	1.02 ± 0.023
GTTAGGGTTG	1.02 ± 0.045
GTTAGGTATA	0.9975 ± 0.0098
GTTAGGTTTT	1 ± 0.017
GTTAGTACAG	1.01 ± 0.031
GTTAGTATAA	0.9894 ± 0.0074
GTTAGTCGGT	0.983 ± 0.032
GTTAGTGATG	0.9838 ± 0.003
GTTAGTGGGG	0.992 ± 0.014
GTTAGTGTTG	0.978 ± 0.01
GTTAGTTTTT	0.986 ± 0.02
GTTATAAAGT	0.99 ± 0.024
GTTATAAGTT	1.06 ± 0.027
GTTATAATTG	0.984 ± 0.035
GTTATAGGGT	1.01 ± 0.02
GTTATAGTCG	0.999 ± 0.05
GTTATATAAC	1.03 ± 0.058
GTTATATAGG	0.982 ± 0.046
GTTATGTGGT	0.975 ± 0.0099

Sequence	switch fluorescence ratio
GTTATTCCAA	1.03 ± 0.028
GTTCAAATAG	0.9884 ± 0.0095
GTTCAAGGGG	0.983 ± 0.039
GTTCACTGGG	0.994 ± 0.022
GTTCCAAAGC	1.23 ± 0.019
GTTCCCAGTT	0.997 ± 0.017
GTTCCCTTGA	1.02 ± 0.018
GTTCCGGCGT	1.21 ± 0.25
GTTCCTTGGG	1.01 ± 0.016
GTTCGAAGAC	1.015 ± 0.0023
GTTCGCAAAT	1.09 ± 0.063
GTTCGGGGCT	0.999 ± 0.029
GTTCGGGGGG	1 ± 0.032
GTTCGTATTT	0.997 ± 0.021
GTTCGTCCTC	1.03 ± 0.031
GTTCGTCTTT	1 ± 0.013
GTTCTATGGT	0.998 ± 0.022
GTTCTGAAGG	1.02 ± 0.0029
GTTCTGTCGG	1.002 ± 0.01
GTTCTTGTGT	1.01 ± 0.023
GTTGAACGCG	1.028 ± 0.0015
GTTGAACTTT	1.02 ± 0.046
GTTGAAGTTT	0.9846 ± 0.0073
GTTGAATTGG	0.985 ± 0.026
GTTGACAAAT	1.036 ± 0.01

Sequence	switch fluorescence ratio
GTTGACTGGT	0.95 ± 0.016
GTTGAGGGGA	1.01 ± 0.058
GTTGAGGGTT	0.989 ± 0.049
GTTGAGGTTC	1.03 ± 0.035
GTTGATCAAT	1.03 ± 0.031
GTTGATGGAG	0.992 ± 0.0091
GTTGATGGGA	0.982 ± 0.03
GTTGATGGGG	0.984 ± 0.047
GTTGCATCGA	1.02 ± 0.046
GTTGCCGGGG	1.01 ± 0.015
GTTGCCTTCA	1.14 ± 0.035
GTTGCGGAGT	1 ± 0.021
GTTGCGTGCT	0.969 ± 0.032
GTTGCTAAAT	1 ± 0.03
GTTGCTACTG	1.05 ± 0.041
GTTGCTCTCA	1.01 ± 0.049
GTTGCTGTGG	0.985 ± 0.026
GTTGCTTTTT	0.998 ± 0.035
GTTGGAGCTA	1.036 ± 0.0083
GTTGGAGGAA	0.976 ± 0.0098
GTTGGAGGAG	0.992 ± 0.026
GTTGGAGGAT	0.9843 ± 0.0026
GTTGGATGTA	1.011 ± 0.008
GTTGGATTAA	1 ± 0.046
GTTGGCATGG	1.025 ± 0.0044

Sequence	switch fluorescence ratio
GTTGGCGTGA	1.01 ± 0.057
GTTGGGAAGT	0.994 ± 0.038
GTTGGGAGCG	1 ± 0.033
GTTGGGATTG	1.01 ± 0.013
GTTGGGGCTG	0.973 ± 0.14
GTTGGGGGCG	0.991 ± 0.052
GTTGGGGGG	0.984 ± 0.041
GTTGGGGTTC	0.982 ± 0.027
GTTGGGGTTG	1.01 ± 0.025
GTTGGTAAGA	0.9979 ± 0.0036
GTTGGTATTC	0.9965 ± 0.0086
GTTGGTCGTG	1 ± 0.038
GTTGGTGGGA	0.973 ± 0.025
GTTGGTGTTT	0.985 ± 0.016
GTTGGTTACC	1.01 ± 0.041
GTTGGTTATG	0.99 ± 0.041
GTTGGTTCTT	1 ± 0.039
GTTGTAAAGA	0.98 ± 0.019
GTTGTAACAT	0.99541 ± 0.00081
GTTGTAAGG	1.02 ± 0.025
GTTGTAAGTT	0.978 ± 0.0098
GTTGTATGTA	1 ± 0.049
GTTGTATGTG	0.965 ± 0.047
GTTGTCGTGT	1.01 ± 0.049
GTTGTGCTTT	0.984 ± 0.011

Sequence	switch fluorescence ratio
GTTGTGGATA	0.97 ± 0.029
GTTGTGGCGT	0.9853 ± 0.0069
GTTGTGGGTA	0.975 ± 0.034
GTTGTGGGTT	0.976 ± 0.022
GTTGTTACGG	1.01 ± 0.037
GTTGTTAGAG	0.989 ± 0.021
GTTGTTAGGT	0.97 ± 0.022
GTTGTTGTGA	0.976 ± 0.02
GTTGTTGTGG	1.02 ± 0.034
GTTGTTTACC	1.02 ± 0.021
GTTTAAAAAG	0.9958 ± 0.0034
GTTTAAAGGT	0.996 ± 0.024
GTTTAACCGG	1.01 ± 0.035
GTTTAAGGAC	0.991 ± 0.038
GTTTACAGGC	0.9875 ± 0.0092
GTTTACGCAC	1.75 ± 0.03
GTTTACTCGT	1.02 ± 0.012
GTTTACTTTT	0.986 ± 0.013
GTTTAGGATT	1.21 ± 0.33
GTTTAGGGGC	0.992 ± 0.023
GTTTAGTAAG	1 ± 0.013
GTTTATACCG	0.996 ± 0.015
GTTTATAGAG	1.01 ± 0.039
GTTTATGTAG	1.01 ± 0.0096
GTTTATGTGA	1.03 ± 0.057

Sequence	switch fluorescence ratio
GTTTATTACT	1.01 ± 0.021
GTTTATTCCT	1.02 ± 0.044
GTTTCAGGT	0.991 ± 0.027
GTTTCAGGTT	2.12 ± 1.6
GTTTCATATC	1.02 ± 0.047
GTTTCATGAA	1.01 ± 0.018
GTTTCGAGCG	1.03 ± 0.013
GTTTCGCGA	1.14 ± 0.041
GTTTCGGGTG	1.64 ± 0.84
GTTTCGGTTT	1.1 ± 0.096
GTTTGAATTT	0.989 ± 0.027
GTTTGAGGAG	0.986 ± 0.05
GTTTGAGGCG	1 ± 0.012
GTTTGAGGTG	1 ± 0.044
GTTTGATATA	1.01 ± 0.011
GTTTGCAAGA	1.01 ± 0.028
GTTTGCGGGC	0.947 ± 0.0066
GTTTGGCATG	1.003 ± 0.0051
GTTTGGCCGG	0.998 ± 0.03
GTTTGGCCTT	1.04 ± 0.012
GTTTGGGATG	0.9738 ± 0.0065
GTTTGGGCTT	1.05 ± 0.063
GTTTGGGGTG	0.999 ± 0.043
GTTTGGTGAG	1.01 ± 0.021
GTTTGTACAC	0.986 ± 0.054

Sequence	switch fluorescence ratio
GTTTGTCAGG	0.99 ± 0.04
GTTTGTGGAC	0.997 ± 0.035
GTTTGTGGGC	1.01 ± 0.077
GTTTGTGGGG	0.991 ± 0.021
GTTTGTTAGG	1.012 ± 0.0095
GTTTGTTGGC	0.967 ± 0.056
GTTTTACCTG	1 ± 0.03
GTTTTAGGCG	0.986 ± 0.028
GTTTTAGGGG	1.01 ± 0.052
GTTTTATGG	0.982 ± 0.019
GTTTTATGGT	0.968 ± 0.0075
GTTTTATTGC	0.975 ± 0.04
GTTTTCACAG	0.992 ± 0.033
GTTTTCAGCG	1.01 ± 0.022
GTTTTCGGTA	0.9802 ± 8.4e-05
GTTTTCTTAG	0.9737 ± 0.0031
GTTTTCTTAT	0.998 ± 0.029
GTTTTGAGGG	1.01 ± 0.016
GTTTTGGCGT	0.984 ± 0.021
GTTTTGGCTG	1.02 ± 0.036
GTTTTGGGGA	0.996 ± 0.011
GTTTTGGGTA	1.04 ± 0.041
GTTTTGTGTT	0.992 ± 0.0047
GTTTTGTTCC	1.019 ± 0.0041
GTTTTTAATG	0.969 ± 0.011

Sequence	switch fluorescence ratio
GTTTTTACGA	1.03 ± 0.027
GTTTTTACGT	1.12 ± 0.14
GTTTTTAGGT	0.98 ± 0.021
GTTTTTAGTT	1.012 ± 0.0084
GTTTTTATGG	0.997 ± 0.03
GTTTTTATTG	0.992 ± 0.042
GTTTTTGACT	0.964 ± 0.03
GTTTTTGATA	0.998 ± 0.02
GTTTTTGGGC	0.985 ± 0.026
GTTTTTGGTC	0.974 ± 0.02
GTTTTTTACG	0.998 ± 0.012
GTTTTTTAGC	0.991 ± 0.069
GTTTTTTAGT	0.988 ± 0.023
GTTTTTTATA	0.995 ± 0.011
GTTTTTTATC	1 ± 0.029
GTTTTTTGAG	1 ± 0.046
GTTTTTTGTC	1.03 ± 0.049
TAAAAACCAT	1.01 ± 0.046
TAAAAACTGG	0.975 ± 0.045
TAAAAACTGT	1.02 ± 0.034
TAAAAAGAAA	0.983 ± 0.043
TAAAAAGATT	0.988 ± 0.019
TAAAAAGCTC	1.01 ± 0.021
TAAAAAGGAA	0.964 ± 0.064
TAAAAAGGGC	0.992 ± 0.057
